# Test results as given in patent publication US20240067932A1, “METHODS AND COMPOSITIONS FOR GENERATING HEMOGENIC ENDOTHELIAL CELLS FROM PLURIPOTENT STEM CELLS” (Trailhead Biosystems Inc., priority 2022, published 2024).
# How the values were obtained:
# [1] = test system: early mesoderm progenitors; test: Factor criticality / dynamic profile analysis of gene expression on removal of a finalized effector; type: cell-based, human; set-up: expression level of GATA2 / expression level of TAL1 / expression level of CD44 / expression level of KDR / expression level of CD34 / expression level of CD31: unit not given here
# [2] = test system: early mesoderm progenitors; test: 8-factor HD-DoE experiments optimized for maximum GATA2 expression (qPCR, partial least squares models); type: cell-based, human; conditions: fifth model, FIG. 6; factors VPA, SCF, BMP4, EFG, FLT3L, Arginine, Retinoic Acid, VEGF
# [3] = model FIG. 11, named factor removed
molecule,measurement,setting,value
"BMP4: BMP pathway agonist (protein, UniProt P12644 293-408, looked up) Bone morphogenetic protein 4: SPKHHSQRARKKNKNCRRHSLYVDFSDVGWNDWIVAPPGYQAFYCHGDCPFPLADHLNSTNHAIVQTLVNSVNSSIPKACCVPTELSAISMLYLDEYDKVVLKNYQEMVVEGCGCR",expression level of GATA2,"[1]; model FIG. 11 (Retinoic Acid, BMP4, VEGF), factor present",519
same,expression level of CD31,"[1]; model FIG. 11, factor present",768
same,expression level of CD34,"[1]; model FIG. 11, factor present",3971
same,expression level of FLI1 (Fill [sic]),"[1]; model FIG. 11, factor present",3250
same,expression level of KDR,"[1]; model FIG. 11, factor present",17667
same,expression level of TAL1,"[1]; model FIG. 11, factor present",490
same,expression level of CD31,[1]; [3],682
same,expression level of CD34,[1]; [3],3455
same,expression level of FLI1 (Fill [sic]),[1]; [3],2213
same,expression level of GATA2,[1]; [3],338
same,expression level of KDR,[1]; [3],10025
same,expression level of TAL1,[1]; [3],422
same,factor contribution (maximum expression of GATA2),[2],31
